Laboratory results reported in publication PMC6458996, “Sostdc1: A soluble BMP and Wnt antagonist that is induced by the interaction between myeloma cells and osteoblast lineage cells” (Bone, 2019).

T1: recombinant murine Sostdc1 (sclerostin domain containing 1) (mouse, UniProt Q9CQN4 24-206)
T1 construct: sclerostin domain containing 1 (Sostdc1), murine recombinant protein; also called recombinant Sostdc1; murine recombinant Sostdc1
T1 sequence (looked up): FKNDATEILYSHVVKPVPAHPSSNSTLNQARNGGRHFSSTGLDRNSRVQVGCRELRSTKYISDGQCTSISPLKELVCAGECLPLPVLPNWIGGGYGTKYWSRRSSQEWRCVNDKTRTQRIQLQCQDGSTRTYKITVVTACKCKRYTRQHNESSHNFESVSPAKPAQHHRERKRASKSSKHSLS


Columns and labels:
[1] = target: recombinant murine low density lipoprotein receptor-related protein 6 (LRP6) (mouse) (UniProt O88572); assay: BLI; Amine reactive 2nd generation (AR2G) biosensors (ForteBio, BLItz); analyte at multiple concentrations from 0 to 100 ug/ml; global fit to a simple 1:1 Langmuir model; which partner was immobilised is not stated outright (the legend speaks of 100 ug/ml of Sostdc1 binding to rmLRP6, BMP2 and BMP7)
[2] = target: T1, recombinant murine Sostdc1 (sclerostin …); assay: as above; conditions: both partners purified

recombinant murine low density lipoprotein receptor-related protein 6 (LRP6) (mouse), sequence (O88572 20-1613): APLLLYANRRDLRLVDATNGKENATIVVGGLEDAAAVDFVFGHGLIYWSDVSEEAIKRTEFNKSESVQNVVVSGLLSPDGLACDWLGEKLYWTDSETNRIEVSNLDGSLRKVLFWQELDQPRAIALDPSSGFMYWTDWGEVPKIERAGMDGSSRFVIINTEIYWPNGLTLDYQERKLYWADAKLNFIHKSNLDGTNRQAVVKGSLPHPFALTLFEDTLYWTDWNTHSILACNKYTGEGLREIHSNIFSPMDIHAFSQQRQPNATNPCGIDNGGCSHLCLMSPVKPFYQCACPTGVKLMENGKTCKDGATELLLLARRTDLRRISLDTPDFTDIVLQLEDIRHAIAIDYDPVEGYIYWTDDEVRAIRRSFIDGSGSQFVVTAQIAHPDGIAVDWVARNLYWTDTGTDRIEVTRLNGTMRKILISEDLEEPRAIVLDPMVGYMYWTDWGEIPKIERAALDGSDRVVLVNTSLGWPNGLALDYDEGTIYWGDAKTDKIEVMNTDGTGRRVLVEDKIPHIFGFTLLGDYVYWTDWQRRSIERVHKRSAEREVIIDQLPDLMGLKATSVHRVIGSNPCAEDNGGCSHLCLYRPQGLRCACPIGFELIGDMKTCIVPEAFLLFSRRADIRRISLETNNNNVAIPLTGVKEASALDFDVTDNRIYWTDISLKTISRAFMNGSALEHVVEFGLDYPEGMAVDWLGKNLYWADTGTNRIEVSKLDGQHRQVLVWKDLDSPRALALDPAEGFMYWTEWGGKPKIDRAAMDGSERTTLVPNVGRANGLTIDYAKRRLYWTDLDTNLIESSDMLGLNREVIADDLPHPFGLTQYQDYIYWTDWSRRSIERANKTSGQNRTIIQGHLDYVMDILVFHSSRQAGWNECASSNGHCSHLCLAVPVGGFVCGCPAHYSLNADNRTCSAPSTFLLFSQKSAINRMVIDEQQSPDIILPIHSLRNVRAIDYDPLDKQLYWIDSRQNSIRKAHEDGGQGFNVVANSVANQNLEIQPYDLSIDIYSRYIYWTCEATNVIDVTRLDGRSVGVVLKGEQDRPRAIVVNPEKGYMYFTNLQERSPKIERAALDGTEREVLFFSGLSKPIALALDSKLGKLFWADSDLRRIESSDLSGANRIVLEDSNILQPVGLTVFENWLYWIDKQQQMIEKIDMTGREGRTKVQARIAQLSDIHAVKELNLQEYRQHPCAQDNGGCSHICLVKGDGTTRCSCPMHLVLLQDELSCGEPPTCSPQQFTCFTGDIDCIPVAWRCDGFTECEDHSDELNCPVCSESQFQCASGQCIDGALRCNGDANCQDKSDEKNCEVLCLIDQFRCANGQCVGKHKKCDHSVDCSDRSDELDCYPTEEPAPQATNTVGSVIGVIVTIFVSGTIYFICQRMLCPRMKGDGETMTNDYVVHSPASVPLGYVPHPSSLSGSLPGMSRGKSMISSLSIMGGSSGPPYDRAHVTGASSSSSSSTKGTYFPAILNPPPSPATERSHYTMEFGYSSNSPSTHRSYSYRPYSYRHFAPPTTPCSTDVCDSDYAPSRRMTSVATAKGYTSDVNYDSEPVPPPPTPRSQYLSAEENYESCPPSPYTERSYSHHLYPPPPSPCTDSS

Kd [1] | Kd [2] | Molecule
0.85 nM | – | recombinant murine Sostdc1 (sclerostin domain containing 1) (from UniProt Q9CQN4 24-206) (natural protein)
– | 9.57 nM | bone morphogenetic protein 2 (BMP2) (ligand, UniProt P12643 283-396, looked up, BMP2, recombinant protein; also called BMP2 ligand protein) QAKHKQRKRLKSSCKRHPLYVDFSDVGWNDWIVAPPGYHAFYCHGECPFPLADHLNSTNHAIVQTLVNSVNSKIPKACCVPTELSAISMLYLDENEKVVLKNYQDMVVEGCGCR
– | < 0.001 nM | bone morphogenetic protein 7 (BMP7) (ligand, UniProt P18075 293-431, looked up, BMP7, recombinant protein; also called ligand BMP7 protein) STGSKQRSQNRSKTPKNQEALRMANVAENSSSDQRQACKKHELYVSFRDLGWQDWIIAPEGYAAYYCEGECAFPLNSYMNATNHAIVQTLVHFINPETVPKPCCAPTQLNAISVLYFDDSSNVILKKYRNMVVRACGCH
